Reference: the RNAGym collection of RNA variant scans (doi:10.1021/acssynbio.7b00057)

B1: Pistol ribozyme (parent)
chain: GGGUCGUUGUUCCAUAAUCGCGUGGAUAUGGCACGCAAGUUUCUACCGGGCACCGUAAAUGUCCGACUGGAGCCGUUCGGGCGGCUAUAAACAGACCUCAGGCCCGAAGCGUGGCGGCACCUGCCGCCGGUGGUAAAAAAGAUCGGAAGAGCACACGUCU

Variants of: B1
Assay: aptazyme ON/OFF ratio, guanine; higher = stronger switching; co-transcriptional cleavage with and without guanine

Variant | aptazyme ON/OFF ratio
U8A G9U U10C C12U C13A | 1.08
U8A G9U U10C C12U C13G | 1.07
U8A G9U U10C C12U C13U | 1.18
U8A G9C U10G U11G C12U C13U | 1.11
U8A G9C U10G U11G C12U C13G | 1.08
U8A G9C U10G U11G C12U C13A | 1.08
U8A G9U U10C U11G C12G C13G | 1.11
U8A G9U U10C U11G C12G C13A | 1.15
U8A G9U U10C U11G C12G C13U | 1.11
U8A G9C U11A C12G C13U | 1.14
U8A G9C U11A C12G C13A | 1.12
U8A G9C U11A C12G C13G | 1.17
U8A G9U U10G U11G C12U C13U | 1.35
U8A G9U U10G U11G C12U C13G | 1.21
U8A G9U U10G U11G C12U C13A | 1.32
U8A G9U U10G U11A C12A C13U | 1.47
U8A G9U U10G U11A C12A C13G | 1.16
U8A G9U U10G U11A C12A C13A | 1.22
U8A G9U U10A U11A C12U C13U | 1.53
U8A G9U U10A U11A C12U C13G | 1.36
U8A G9U U10A U11A C12U C13A | 1.21
U8A G9U U10C U11C C12U C13G | 1.04
U8A G9U U10C U11C C12U C13U | 1.04
U8A G9U U10C U11C C12U C13A | 1.04

Variant | aptazyme ON/OFF ratio
U8A G9C U11C C12A C13G | 1.05
U8A G9C U11C C12A C13A | 1.07
U8A G9C U11C C12A C13U | 1.06
U8A G9U U10G C13U | 1.55
U8A G9U U10G C13A | 1.18
U8A G9U U10G C13G | 1.13
U8A G9C U11A | 1.21
U8A G9C U11G | 1.25
U8A G9C U11C | 1.03
U8A G9U U10C U11A C12A C13U | 1.17
U8A G9U U10C U11A C12A C13A | 1.14
U8A G9U U10C U11A C12A C13G | 1.12
U8A G9U U11A C12A C13G | 1.18
U8A G9U U11A C12A C13U | 1.38
U8A G9U U11A C12A C13A | 1.22
U8A G9C U10G U11G C12A C13U | 1.21
U8A G9C U10G U11G C12A C13G | 1.14
U8A G9C U10G U11G C12A C13A | 1.13
U8A G9U C12G C13A | 1.21
U8A G9U C12G C13U | 1.26
U8A G9U C12G C13G | 1.23
U8A G9U U10A U11G C13A | 1.23
U8A G9U U10A U11G C13U | 1.25
U8A G9U U10A U11G C13G | 1.08

Variant | aptazyme ON/OFF ratio
U8A G9C U11G C12A | 1.06
U8A G9C U11G C12G | 1.16
U8A G9C U11G C12U | 1.45
U8A G9U U11A | 1.79
U8A G9U U11G | 1.63
U8A G9U U11C | 1.03
U8A G9U U10C C12G C13U | 1.25
U8A G9U U10C C12G C13A | 1.15
U8A G9U U10C C12G C13G | 1.18
U8A G9U U10G U11G C12G | 1.27
U8A G9U U10G U11G C12A | 1.07
U8A G9U U10G U11G C12U | 1.28
U8A G9C U10G U11C C12A | 1.18
U8A G9C U10G U11C C12G | 1.14
U8A G9C U10G U11C C12U | 1.05
U8A G9U U11A C12G C13U | 1.3
U8A G9U U11A C12G C13A | 1.32
U8A G9U U11A C12G C13G | 1.3
U8A G9C U11C C13U | 1.06
U8A G9C U11C C13A | 1.06
U8A G9C U11C C13G | 1.04
U8A G9U U10C C13U | 1.15
U8A G9U U10C C13G | 1.04
U8A G9U U10C C13A | 1.08

Variant | aptazyme ON/OFF ratio
U8A G9U U11C C13A | 1.04
U8A G9U U11C C13U | 1.03
U8A G9U U11C C13G | 1.02
U8A G9U U10G U11C C12G | 1.07
U8A G9U U10G U11C C12U | 1.01
U8A G9U U10G U11C C12A | 1.04
U8A G9U U10C U11G C12A C13U | 1.12
U8A G9U U10C U11G C12A C13G | 1.25
U8A G9U U10C U11G C12A C13A | 1.19
U8A G9U U10G U11A | 1.07
U8A G9U U10G U11C | 1.06
U8A G9U U10G U11G | 1.09
U8A G9U C13G | 1.09
U8A G9U C13U | 1.4
U8A G9U C13A | 1.24
U8A G9U U10A U11C C12U | 1.11
U8A G9U U10A U11C C12A | 1.07
U8A G9U U10A U11C C12G | 1.09
U8A G9C U11A C13G | 1.06
U8A G9C U11A C13A | 1.16
U8A G9C U11A C13U | 1.16
U8A G9C U11G C12G C13A | 1.18
U8A G9C U11G C12G C13U | 1.07
U8A G9C U11G C12G C13G | 1.14

Variant | aptazyme ON/OFF ratio
U8A G9U U10G U11G C13U | 1.03
U8A G9U U10G U11G C13A | 1.08
U8A G9U U10G U11G C13G | 1.06
U8A G9C U11G C12A C13U | 1.2
U8A G9C U11G C12A C13A | 1.1
U8A G9C U11G C12A C13G | 1.25
U8A G9U U10C U11G C12G | 1.09
U8A G9U U10C U11G C12A | 1.05
U8A G9U U10C U11G C12U | 1.18
U8A G9U U10C | 1.88
U8A G9U U10G | 1.61
U8A G9U U10A | 1.31
U8A G9U C12G | 1.18
U8A G9U C12A | 1.22
U8A G9U C12U | 1.46
U8A G9U U11C C12U | 1.13
U8A G9U U11C C12G | 1.08
U8A G9U U11C C12A | 1
U8A G9C U11A C12U | 1.22
U8A G9C U11A C12G | 1.22
U8A G9C U11A C12A | 1.19
U8A G9U U11G C12A C13U | 1.23
U8A G9U U11G C12A C13G | 1.41
U8A G9U U11G C12A C13A | 1.11

Variant | aptazyme ON/OFF ratio
U8A G9U U10C U11C | 1.04
U8A G9U U10C U11A | 1.34
U8A G9U U10C U11G | 1.34
U8A G9U C12U C13A | 1.36
U8A G9U C12U C13G | 1.25
U8A G9U C12U C13U | 1.36
U8A G9U U10C U11A C13U | 1.17
U8A G9U U10C U11A C13A | 1.06
U8A G9U U10C U11A C13G | 1.03
U8A G9U U10A C12U C13U | 1.13
U8A G9U U10A C12U C13G | 1.18
U8A G9U U10A C12U C13A | 1.25
U8A G9U U10G C12G C13U | 1.28
U8A G9U U10G C12G C13A | 1.29
U8A G9U U10G C12G C13G | 1.15
U8A G9U U10A U11C C12U C13G | 1.22
U8A G9U U10A U11C C12U C13A | 1.25
U8A G9U U10A U11C C12U C13U | 1.18
U8A G9U U11C C12G C13A | 1.14
U8A G9U U11C C12G C13G | 1.16
U8A G9U U11C C12G C13U | 1.16
U8A G9U U10C U11C C13A | 1
U8A G9U U10C U11C C13G | 1.01
U8A G9U U10C U11C C13U | 1.03

Variant | aptazyme ON/OFF ratio
U8A G9U U10A U11G | 1.42
U8A G9U U10A U11A | 1.67
U8A G9U U10A U11C | 1.03
U8A G9U U10G U11G C12A C13U | 1.26
U8A G9U U10G U11G C12A C13G | 1.14
U8A G9U U10G U11G C12A C13A | 1.16
U8A G9U U10G U11C C12U C13U | 1.08
U8A G9U U10G U11C C12U C13G | 1.05
U8A G9U U10G U11C C12U C13A | 1.04
U8A G9U U10A U11G C12A C13U | 1.21
U8A G9U U10A U11G C12A C13A | 1.01
U8A G9U U10A U11G C12A C13G | 1.19
U8A G9U U10C C12U | 1.08
U8A G9U U10C C12G | 1.04
U8A G9U U10C C12A | 1.04
U8A G9U U10A C12G C13A | 1.34
U8A G9U U10A C12G C13U | 1.33
U8A G9U U10A C12G C13G | 1.28
U8A G9C U10G U11G C12G C13G | 1.23
U8A G9C U10G U11G C12G C13A | 1.14
U8A G9C U10G U11G C12G C13U | 1.31
U8A G9U U10A U11C C12G C13G | 1.12
U8A G9U U10A U11C C12G C13U | 1.34
